This note sets out measurements from patent publication US11939390B2, “Methods of treating multiple myeloma” (Sanofi-Aventis U.S. LLC, priority 2019, dated 2024).

Series [1] concerns anti-isatuximab antibodies. Nature of the series: Immunogenicity: antidrug antibodies (ADA). Details: species or system human. The following applies: in vivo. As for the experimental part: The presence of antidrug antibodies (ADA, i.e., anti-isatuximab antibodies) in patients in the IPd arm were assessed throughout the study.
The nature of series [2]: Population pharmacokinetics of isatuximab. The settings on record: patients with renal impairment vs those without. It counts as in vivo, human. From the text: Blood samples were collected from all patients treated with […] to assess the pharmacokinetic profile of isatuximab using population pharmacokinetic approach.

Regarding “isatuximab: anti-CD38 antibody, CAS Registry Number 1461640-62-9; heavy chain SEQ ID NO: 10, light chain SEQ ID NO: 11”, in series [1], the “anti-drug antibodies (ADA)” value was “No positive ADA”. Moreover, the Pharmacokinetic parameters result in series [2] is “comparable between patients with renal impairment and those without”.
